Assay results published in patent US7825091B2, “Modification of feeding behaviour” (Imperial Innovations Limited, priority 2003, dated 2010).
No end group written: not given here.

Columns and labels:
[1] = tested on: fos-like immunoreactivity; assay: Fos-like immunoreactivity (FLI) immunohistochemistry in hypothalamus and brainstem after IP injection; format: in vivo, rat; conditions: IP 15 nmol/kg, 90 minutes
Description: The brains were removed and post-fixed overnight in PBF and then transferred to PB-sucrose (20% w/v) overnight. 40 μm coronal sections of brain and brainstem were cut on a freezing microtome and stained for fos-like immunoreactivity (FLI) by the avitin-biotin-peroxidase method. The sections were then mounted on poly-L-lysine-coated slides, dehydrated in increasing concentrations of ethanol (50-100%), delipidated in xylene and coverslipped using DPX mountant. Slides were examined for FLI-positive nuclei using a light microscope (Nikon Eclipse E-800) and images captured using a microimager (Xillix MicroImager). The numbers of FLI-positive nuclei in the hypothalamus and brainstem were counted by an independent member of the research team who was blinded to the experimental groups. The average number of FLI-positive nuclei per section was calculated and expressed as an integer for each animal.

[2] = iPVN injection, food intake in 24-h fasted rats (studies 1b, 2b); format: in vivo, rat
Description: (§1) Animals were handled daily after recovery from surgery until completion of the studies.
(§2) Animals had permanent stainless steel guide cannulas (Plastics One, Roanoke, Va.) stereotactically implanted ICV (intracerebraventricularly) or iPVN (into the hypothalamic paraventricular nucleus).
Therefore, exendin-4 was injected iPVN at a dose of 0.03 nmol.

[3] = target: T1, Arcuate nucleus GLP-1 receptors (Rattus norvegicus, UniProt P32301); assay: iARC exendin 9-39 prior to IP OXM or GLP-1, 1 hour food intake; format: in vivo
T1 construct: 24-hour fasted rats received an iARC injection of saline or exendin9-39 (5 nmoles); from tissue; host or cells: live rat, hypothalamic arcuate nucleus
T1 sequence (P32301 22-463): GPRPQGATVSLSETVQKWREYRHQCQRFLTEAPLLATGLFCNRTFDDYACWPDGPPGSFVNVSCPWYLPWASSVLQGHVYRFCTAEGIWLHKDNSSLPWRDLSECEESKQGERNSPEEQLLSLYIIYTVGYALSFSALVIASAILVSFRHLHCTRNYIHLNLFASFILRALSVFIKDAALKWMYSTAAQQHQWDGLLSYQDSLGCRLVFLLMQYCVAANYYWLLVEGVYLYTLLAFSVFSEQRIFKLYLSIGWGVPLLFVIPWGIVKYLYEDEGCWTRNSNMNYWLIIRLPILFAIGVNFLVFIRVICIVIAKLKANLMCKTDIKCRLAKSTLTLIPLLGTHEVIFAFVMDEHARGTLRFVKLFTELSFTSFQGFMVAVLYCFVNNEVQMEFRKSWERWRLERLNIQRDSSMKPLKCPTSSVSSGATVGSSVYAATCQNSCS
Text: Rats cannulated into the arcuate nucleus were randomised into 6 groups (n=10-12 per group). […] The injection details are described in Table 1 below.

GLP-1 receptor = target: T2, GLP-1 receptor (Rattus norvegicus, UniProt P32301); assay: Coadministration of exendin-(9-39) with GLP-1 or OXM, ICV and iPVN, food intake (study 4); format: in vivo
T2 construct: from tissue; host or cells: rat hypothalamus (membrane preparation)
T2 sequence (P32301 22-463): T1 sequence (P32301 22-463)

[4] = ICV injection, food intake in 24-h fasted rats (studies 1a, 2a); format: in vivo, rat; conditions: ICV 3 nmol, vs saline
Text: as §1, §2

CCK: positive control for gastric emptying at the two-hour time-point (DYMGWMDF; ends and bridges not checked; UniProt P06307 96-103, looked up)
FLI staining in the brainstem (NTS, area postrema) [1]: caused dense staining of FLI

exendin-4
food intake (refeeding) after iPVN injection ([2]; iPVN 0.03 nmol): inhibited reseeding

exendin-(9-39)
effect on anorexia caused by IP administration of OXM ([3]; exendin 9-39 into the ARC, dose printed 300 nmol/kg, IP OXM 30 nmol/kg): blocked
Food intake (g), 1 hour ([3]; iARC exendin 9-39 (5 nmoles) or saline 15 minutes prior to IP OXM (30 nmol/kg), GLP-1 (30 nmol/kg) or saline): 9.0 g
effect on inhibition of food intake by IP GLP-1 ([3]; prior iARC exendin 9-39, IP GLP-1 30 nmol/kg): not affected
effect of coadministration on anorectic effects of GLP-1 (GLP-1 receptor; ICV, exendin-(9-39) 30 nmol with GLP-1 3 nmol, ratio 10:1): blocked the anorectic effects of GLP-1
effect of coadministration on anorectic effect of OXM (GLP-1 receptor; ICV, exendin-(9-39) 30 nmol with OXM 3 nmol): attenuation of the anorectic effect of OXM
effect of coinjection on anorectic effects of GLP-1 (GLP-1 receptor; iPVN, exendin-(9-39) 10 nmol with GLP-1 1 nmol): blocked
effect of coinjection on anorectic effects of OXM (GLP-1 receptor; iPVN, exendin-(9-39) 10 nmol with OXM 1 nmol): blocked

glucagon
food intake (refeeding) after ICV injection [4]: failed to affect food intake at any time point
food intake after iPVN injection ([2]; iPVN 1 nmol, any time point): failed to affect food intake at any time point
